Molecular target: T1, nSR100 (Mus musculus, UniProt Q8BKA3)
T1 construct: host or cells: mouse N2A cells
T1 sequence (Q8BKA3 1-608): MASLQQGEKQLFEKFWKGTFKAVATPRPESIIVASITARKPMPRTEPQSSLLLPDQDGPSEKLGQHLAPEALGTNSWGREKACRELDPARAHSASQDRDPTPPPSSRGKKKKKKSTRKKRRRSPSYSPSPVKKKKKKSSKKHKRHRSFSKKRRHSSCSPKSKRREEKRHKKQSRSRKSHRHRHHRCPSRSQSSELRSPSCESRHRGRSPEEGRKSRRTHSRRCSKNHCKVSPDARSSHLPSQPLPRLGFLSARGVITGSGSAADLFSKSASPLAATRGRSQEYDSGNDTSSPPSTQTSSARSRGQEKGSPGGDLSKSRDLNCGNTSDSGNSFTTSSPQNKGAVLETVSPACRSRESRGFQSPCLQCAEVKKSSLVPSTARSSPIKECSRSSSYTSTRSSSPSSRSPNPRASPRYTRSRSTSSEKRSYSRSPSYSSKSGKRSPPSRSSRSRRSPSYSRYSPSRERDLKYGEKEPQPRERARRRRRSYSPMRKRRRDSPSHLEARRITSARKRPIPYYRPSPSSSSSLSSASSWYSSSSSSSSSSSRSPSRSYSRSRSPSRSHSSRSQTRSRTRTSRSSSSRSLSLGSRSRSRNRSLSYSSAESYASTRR
Assay: AP-MS nSR100 interaction partners from mouse N2A cells (Table 5)
Type: binding
Conditions: for AvgP (average of the SAINT scores) / MaxP (maximal SAINT score): bait Srrm4; for FoldChange between the prey Avg spectra of the bait and control purifications: bait Srrm4, 0.1 added to prevent division by 0; for AvgSpec (average number of spectra per replicate): bait Srrm4, 2 replicates; for Spectra (number of spectra for the prey in the purification of the bait): AP-MS; for SpecSum: bait Srrm4, sum of spectra over 2 replicates

[1] = bait Srrm4, biological replicate 1 (first number of the cell)
[2] = bait Srrm4, biological replicate 2 (second number of the cell)

Description: By applying affinity purification coupled to mass-spectrometry (AP-MS), several interaction nSR100 partner proteins were detected that provide insight into mechanisms of post-translational regulation of nSR100 levels.

| Molecule | AvgP (average of the SAINT scores) | MaxP (maximal SAINT score) | FoldChange between the prey Avg spectra of the bait and control purifications | AvgSpec (average number of spectra per replicate) | Spectra (number of spectra for the prey in the purification of the bait) [1] | Spectra (number of spectra for the prey in the purification of the bait) [2] | SpecSum |
| --- | --- | --- | --- | --- | --- | --- | --- |
| Rbm39 (protein, UniProt Q8VH51 2-530, looked up) RNA-binding protein 39: ADDIDIEAMLEAPYKKDENKLNSANGHEERSKKRKKSKSRSRSHERKRSKSKERKRSRDRERKKSKSRERKRSRSKERRRSRSRSRDRRFRGRYRSPYSGPKFNSAIRGKIGLPHSIKLSRRRSRSKSPFRKDKSPVREPIDNLTPEERDARTVFCMQLAARIRPRDLEEFFSTVGKVRDVRMISDRNSRRSKGIAYVEFVDVSSVPLAIGLTGQRVLGVPIIVQASQAEKNRAAAMANNLQKGSAGPMRLYVGSLHFNITEDMLRGIFEPFGRIESIQLMMDSETGRSKGYGFITFSDSECAKKALEQLNGFELAGRPMKVGHVTERTDASSASSFLDSDELERTGIDLGTTGRLQLMARLAEGTGLQIPPAAQQALQMSGSLAFGAVAEFSFVIDLQTRLSQQTEASALAAAASVQPLATQCFQLSNMFNPQTEEEVGWDTEIKDDVIEECNKHGGVIHIYVDKNSAQGNVYVKCPSIAAAIAAVNALHGRWFAGKMITAAYVPLPTYHNLFPDSMTATQLLVPSRR | 1 | 1 | 5.46 | 65.5 | 65 | 66 | 131 |
| Ap2a1 (protein, UniProt P17426 1-977, looked up) AP-2 complex subunit alpha-1: MPAVSKGDGMRGLAVFISDIRNCKSKEAEIKRINKELANIRSKFKGDKALDGYSKKKYVCKLLFIFLLGHDIDFGHMEAVNLLSSNKYTEKQIGYLFISVLVNSNSELIRLINNAIKNDLASRNPTFMCLALHCIANVGSREMGEAFAADIPRILVAGDSMDSVKQSAALCLLRLYKASPDLVPMGEWTARVVHLLNDQHMGVVTAAVSLITCLCKKNPDDFKTCISLAVSRLSRIVSSASTDLQDYTYYFVPAPWLSVKLLRLLQCYPPPEDAAVKGRLVECLETVLNKAQEPPKSKKVQHSNAKNAILFETISLIIHYDSEPNLLVRACNQLGQFLQHRETNLRYLALESMCTLASSEFSHEAVKTHIDTVINALKTERDVSVRQRAADLLYAMCDRSNAKQIVSEMLRYLETADYAIREEIVLKVAILAEKYAVDYSWYVDTILNLIRIAGDYVSEEVWYRVLQIVTNRDDVQGYAAKTVFEALQAPACHENMVKVGGYILGEFGNLIAGDPRSSPPVQFSLLHSKFHLCSVATRALLLSTYIKFINLFPETKATIQGVLRAGSQLRNADVELQQRAVEYLTLSSVASTDVLATVLEEMPPFPERESSILAKLKRKKGPGAASALDDSRRDTSSNDINGGVEPTPSTVSTPSPSADLLGLRAAPPPAAPPAPVGGNLLVDVFSDGPTAQPSLGPTPEEAFLSELEPPAPESPMALLADPAPAADPGPEDIGPPIPEADELLNKFVCKNSGVLFENQLLQIGVKSEFRQNLGRMYLFYGNKTSVQFQNFLPTVVHPGDLQTQLAVQTKRVAAQVDGGAQVQQVLNIECLRDFLTPPLLSVRFRYGGTAQSLTLKLPVTINKFFQPTEMAAQDFFQRWKQLSLPLQEAQKIFKANHPMDAEVTKAKLLGFGSALLDNVDPNPENFVGAGIIQTKALQVGCLLRLEPNAQAQMYRLTLRTSKEPVSRHLCELLAQQF | 1 | 1 | 7.2 | 54 | 46 | 62 | 108 |

From patent publication US10772928B2, “Modulation and detection of a neuronal alternative splicing regulatory network for treatment and diagnosis of neurological disorders” (The Governing Council of the University of Toronto, priority 2014, dated 2020)
